Source: patent EP1739090A2 (Biogen Idec MA Inc., dated 2007)
Changes are numbered by the printed parent chain. Each block holds one binder with its values, some of them ahead of it.

What was measured:
[1] = target: T1, type I interferon cell surface receptor complex (IFNAR1/2 complex) expressed on Daudi Burkitt's lymphoma cells (human, UniProt P17181 28-557; P48551 27-515); experiment: FACS on Daudi cells, inhibition of EA12 staining; reference of the assay, value not given
T1 construct: whole, on cells; Endogenous receptor of human Daudi cells; both chains together comprise the receptor for interferon-beta; also called IFNAR1/2 cell surface receptor; cognate receptor on Daudi cells
T1 sequence (looked up) 1: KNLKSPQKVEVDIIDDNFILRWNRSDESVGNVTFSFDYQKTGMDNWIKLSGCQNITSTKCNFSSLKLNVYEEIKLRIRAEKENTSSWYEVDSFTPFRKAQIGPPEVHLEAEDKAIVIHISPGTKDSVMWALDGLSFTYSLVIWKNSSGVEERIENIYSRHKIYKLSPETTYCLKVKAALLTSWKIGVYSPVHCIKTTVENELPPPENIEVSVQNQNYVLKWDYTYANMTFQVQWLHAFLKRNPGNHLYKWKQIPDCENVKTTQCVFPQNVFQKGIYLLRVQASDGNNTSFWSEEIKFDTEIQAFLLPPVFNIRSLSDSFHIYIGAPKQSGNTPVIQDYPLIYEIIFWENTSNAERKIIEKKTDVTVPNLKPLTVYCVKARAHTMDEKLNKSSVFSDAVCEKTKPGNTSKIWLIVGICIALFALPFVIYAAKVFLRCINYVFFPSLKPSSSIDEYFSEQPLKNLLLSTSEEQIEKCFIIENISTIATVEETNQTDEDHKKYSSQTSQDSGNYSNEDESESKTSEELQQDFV
T1 sequence (looked up) 2: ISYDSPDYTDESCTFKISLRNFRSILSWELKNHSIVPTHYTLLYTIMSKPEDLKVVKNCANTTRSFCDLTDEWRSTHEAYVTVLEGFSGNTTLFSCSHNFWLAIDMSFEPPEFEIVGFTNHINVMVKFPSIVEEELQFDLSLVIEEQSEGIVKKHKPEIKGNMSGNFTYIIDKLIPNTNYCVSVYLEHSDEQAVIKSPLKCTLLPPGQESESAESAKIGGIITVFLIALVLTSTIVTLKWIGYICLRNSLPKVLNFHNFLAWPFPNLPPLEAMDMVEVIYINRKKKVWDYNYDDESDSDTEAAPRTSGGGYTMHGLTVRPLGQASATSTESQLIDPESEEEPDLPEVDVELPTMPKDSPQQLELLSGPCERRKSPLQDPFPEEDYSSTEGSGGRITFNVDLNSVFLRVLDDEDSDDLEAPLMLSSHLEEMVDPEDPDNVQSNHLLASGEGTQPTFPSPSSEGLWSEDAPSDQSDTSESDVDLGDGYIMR

[2] = target: T2, IFNAR2/Fc fusion protein (extracellular domain of the human IFNAR2 receptor chain fused to the hinge, CH2 and … (human, UniProt P48551 27-243)); experiment: ELISA on captured IFNAR2/Fc; reference of the assay, EC50 not given
T2 construct: extracellular domain; Expressed in CHO cells, purified on protein A, captured on plates by mouse anti-human IgG1 mAb CDG5-AA9; also called IFNAR2-ectodomain/Fc fusion protein; IFNAR/Fc; not shown: human IgG1 heavy chain constant region: hinge, CH2 and CH3 domains
T2 sequence (looked up): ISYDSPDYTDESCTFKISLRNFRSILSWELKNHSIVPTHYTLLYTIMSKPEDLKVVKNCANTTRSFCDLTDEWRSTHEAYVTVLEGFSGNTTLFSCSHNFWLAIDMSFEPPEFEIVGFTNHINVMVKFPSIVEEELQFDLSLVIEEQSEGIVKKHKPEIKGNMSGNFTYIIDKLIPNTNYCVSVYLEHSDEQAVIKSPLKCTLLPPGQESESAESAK

[3] = target: T2, IFNAR2/Fc fusion protein (extracellular …); experiment: ELISA on IFNAR2/Fc captured by anti-human IgG1 mAb
[4] = target: T2, IFNAR2/Fc fusion protein (extracellular …); experiment: ELISA on captured IFNAR2/Fc

B1: histidine tagged wild-type interferon-beta-1a (ligand)
chain: SGGHHHHHHSSGDDDDKMSYNLLGFLQRSSNFQCQKLLWQLNGRLEYCLKDRMNFDIPEEIKQLQQFQKEDAALTIYEMLQNIFAIFRQDSSSTGWNETIVENLLANVYHQINHLKTVLEEKLEKEDFTRGKLMSSLHLKRYYGRILHYLKAKEYSHCAWTIVRVEILRNFYFINRLTGYLRN
notes: also called his IFN-beta; His6-tagged
binding result [1]: binds
binding result [2]: binds

B2: his tagged-interferon-beta alanine substitution mutant E (ligand)
chain: B1 chain with V165A, R169A, Y172A, N175A
notes: Tested as conditioned medium of EBNA 293 cells
binding result [3]: no binding
concentration without binding, fold over the w.t. his-IFN-beta EC50 [4]: > 500 fold

B4: his tagged-interferon-beta alanine substitution mutant AB1 (ligand)
chain: B1 chain with L45A, E46A, Y47A, L49A, K50A
notes: as for B2
binding result [3]: no binding
concentration without binding, fold over the w.t. his-IFN-beta EC50 [4]: > 500 fold

Now from value to binder:

binding result [3]: no binding
concentration without binding, fold over the w.t. his-IFN-beta EC50 [4]: > 500 fold
B3: his tagged-interferon-beta alanine substitution mutant AB2 (ligand)
chain: B1 chain with M53A, N54A, D56A, E59A
notes: as for B2

binding result [3]: no binding
concentration without binding, fold over the w.t. his-IFN-beta EC50 [4]: 500 fold
B5: his tagged-interferon-beta alanine substitution mutant A2 (ligand)
chain: B1 chain with F32A, Q33A, Q35A, K36A, W39A, Q40A
notes: as for B2
